Labeled cells detected (%) data for one substance are collected here from patent US20160136236A1.

For test [1], the target named is wild type (WT) human low density lipoprotein receptor (LDLR) (human) (UniProt P01130). The test can be described thus: flow cytometry competition; 0.5 ug/mL LDL-BODIPY with 1 ug/mL unlabeled LDL on HEK293 cells transfected with LDLR mRNA.
Test [2] shares this target. The test can be described thus: flow cytometry competition; 0.5 ug/mL LDL-BODIPY with 0.5 ug/mL unlabeled LDL on HEK293 cells transfected with LDLR mRNA.
Test [3] shares this target. The test can be described thus: flow cytometry competition; 0.5 ug/mL LDL-BODIPY with 10 ug/mL unlabeled LDL on HEK293 cells transfected with LDLR mRNA.
Test [4] shares this target. The test can be described thus: flow cytometry competition; 0.5 ug/mL LDL-BODIPY with 500 ug/mL unlabeled LDL on HEK293 cells transfected with LDLR mRNA.
For test [5] the target is unchanged. The test can be described thus: flow cytometry competition; 0.5 ug/mL LDL-BODIPY with 0.1 ug/mL unlabeled LDL on HEK293 cells transfected with LDLR mRNA.
For test [6] the target is unchanged. The test can be described thus: flow cytometry competition; 0.5 ug/mL LDL-BODIPY with 100 ug/mL unlabeled LDL on HEK293 cells transfected with LDLR mRNA.
For test [7] the target is unchanged. The test can be described thus: flow cytometry competition; 0.5 ug/mL LDL-BODIPY with 0.01 ug/mL unlabeled LDL on HEK293 cells transfected with LDLR mRNA.
For test [8] the target is unchanged. The experiment in a line: flow cytometry competition; 0.5 ug/mL LDL-BODIPY with 0 ug/mL unlabeled LDL on HEK293 cells transfected with LDLR mRNA.

Sequence of wild type (WT) human low density lipoprotein receptor (LDLR) (human) (P01130 22-860 limits assumed): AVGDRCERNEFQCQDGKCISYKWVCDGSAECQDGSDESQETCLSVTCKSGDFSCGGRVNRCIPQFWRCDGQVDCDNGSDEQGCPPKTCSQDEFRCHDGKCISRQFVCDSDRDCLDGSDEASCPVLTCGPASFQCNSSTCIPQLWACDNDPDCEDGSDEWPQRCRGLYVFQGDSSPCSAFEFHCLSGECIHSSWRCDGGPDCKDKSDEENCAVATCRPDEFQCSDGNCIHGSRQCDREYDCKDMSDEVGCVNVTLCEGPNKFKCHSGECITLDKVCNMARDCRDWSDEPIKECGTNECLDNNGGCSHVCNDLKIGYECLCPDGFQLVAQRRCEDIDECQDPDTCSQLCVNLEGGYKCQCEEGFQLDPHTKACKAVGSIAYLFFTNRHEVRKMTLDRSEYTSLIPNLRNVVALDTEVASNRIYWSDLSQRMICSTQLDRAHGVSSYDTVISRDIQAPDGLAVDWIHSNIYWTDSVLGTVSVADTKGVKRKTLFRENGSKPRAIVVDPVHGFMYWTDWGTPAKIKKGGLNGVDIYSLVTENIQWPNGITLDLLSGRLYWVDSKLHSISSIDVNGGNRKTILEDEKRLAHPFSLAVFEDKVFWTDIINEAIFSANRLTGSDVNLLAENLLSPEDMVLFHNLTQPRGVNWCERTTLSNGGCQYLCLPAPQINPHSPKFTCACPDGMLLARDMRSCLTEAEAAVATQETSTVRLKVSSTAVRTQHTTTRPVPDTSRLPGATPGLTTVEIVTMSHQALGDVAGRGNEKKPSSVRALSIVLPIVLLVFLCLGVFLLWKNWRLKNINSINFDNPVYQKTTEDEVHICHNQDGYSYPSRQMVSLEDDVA

Consider “unlabeled LDL (low density lipoprotein), P04114 28-4563”, for which the Labeled cells detected (%) in test [1] was found to be 76%; in test [2] it was 64.1%; in test [3] it was 48.4%; in test [4] it was 0.9%; in test [5], 59%; in test [6], 3.2%. The values for the Labeled cells detected (%) in test [7] and in test [8] were 97.7% and 100%, respectively.
